Molecular target: T1, BMC14 (uncultured bacterium (metagenome))
T1 chain: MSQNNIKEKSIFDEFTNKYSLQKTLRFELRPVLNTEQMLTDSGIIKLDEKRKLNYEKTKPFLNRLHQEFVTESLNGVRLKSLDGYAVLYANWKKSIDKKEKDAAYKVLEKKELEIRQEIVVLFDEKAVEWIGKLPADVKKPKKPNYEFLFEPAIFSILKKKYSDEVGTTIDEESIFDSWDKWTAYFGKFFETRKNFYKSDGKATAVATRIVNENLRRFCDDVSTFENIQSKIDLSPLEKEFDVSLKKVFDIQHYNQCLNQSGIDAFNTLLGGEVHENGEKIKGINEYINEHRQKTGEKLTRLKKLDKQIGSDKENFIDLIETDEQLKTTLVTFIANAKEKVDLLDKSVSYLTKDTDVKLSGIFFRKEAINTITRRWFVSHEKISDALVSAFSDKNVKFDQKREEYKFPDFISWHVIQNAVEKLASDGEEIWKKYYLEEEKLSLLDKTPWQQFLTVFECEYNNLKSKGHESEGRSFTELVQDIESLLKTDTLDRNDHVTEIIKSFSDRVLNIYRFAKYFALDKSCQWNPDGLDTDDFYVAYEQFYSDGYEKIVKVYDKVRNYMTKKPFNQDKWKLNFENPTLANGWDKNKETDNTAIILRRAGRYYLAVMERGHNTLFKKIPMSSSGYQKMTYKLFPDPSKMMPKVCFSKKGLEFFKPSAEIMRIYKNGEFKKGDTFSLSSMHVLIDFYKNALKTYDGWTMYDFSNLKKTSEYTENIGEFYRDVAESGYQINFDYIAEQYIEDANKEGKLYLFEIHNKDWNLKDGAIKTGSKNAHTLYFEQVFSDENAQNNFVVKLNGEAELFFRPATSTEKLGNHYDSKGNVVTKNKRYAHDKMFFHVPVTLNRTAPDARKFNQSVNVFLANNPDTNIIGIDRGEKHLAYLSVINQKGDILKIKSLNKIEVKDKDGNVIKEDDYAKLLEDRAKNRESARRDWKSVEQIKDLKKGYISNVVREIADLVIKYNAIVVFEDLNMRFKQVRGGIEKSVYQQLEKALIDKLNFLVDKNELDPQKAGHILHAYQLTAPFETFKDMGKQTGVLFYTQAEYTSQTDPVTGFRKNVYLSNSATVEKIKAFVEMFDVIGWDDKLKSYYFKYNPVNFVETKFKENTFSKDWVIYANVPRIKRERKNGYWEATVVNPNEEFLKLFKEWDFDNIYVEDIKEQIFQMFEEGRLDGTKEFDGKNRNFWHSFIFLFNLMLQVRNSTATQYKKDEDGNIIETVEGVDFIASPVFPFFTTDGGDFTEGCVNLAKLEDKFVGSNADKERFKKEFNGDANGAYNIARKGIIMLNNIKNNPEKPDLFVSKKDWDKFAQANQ
Test: cell_activity; PAM not stated; E. coli depletion, 30 C
Description: Overnight grown pre-cultures were diluted into fresh 60 ml LB-Kanamycin (25 μg/ml) (Example 4) or LB-Kanamycin (25μg/ml)/Nourseothricin (50 μg/ml) medium (Example 5) to obtain an optical density at 600 nm (OD600) of 0.06. The inoculated medium was incubated at 30° C. on a horizontal shaker at 250 rpm until the culture reached an optical density at OD600 of 0.2. For induced BMC (NN) nuclease expression, 600 μl 20% L-(+)-arabinose (w/v) was added to the culture at a final concentration of 0.2% (v/v). The cultivation was continued until the culture reached an optical density at OD600 of 0.5. Subsequently 50 ml culture was transferred into one 50 ml conical tube and harvested by centrifugation at 4° C. for 5 min and 4000×g. Pelleted cells were resuspended in 50 ml ultrapure water (ice-cold) and centrifuged at 4° C. for 5 min and 4000×g.
This washing procedure was repeated twice. Washed cells were resuspended in 25 ml 10% (w/w) glycerin and re-centrifuged at 4° C. for 5 min and 4000×g. The pelleted cells were resuspended in 5 ml 10% (w/w) glycerin. After the final centrifugation step at 4° C. for 5 min and 4000×g, the cells were resuspended in 125 μl 10% (w/w) glycerin. Aliquots of 25 μl competent cells were stored at −80° C. until use. For the transformation procedure, aliquots of competent cells were thawed on ice and 50-100 ng plasmid DNA (CRISPR/gRNA-Ec) was added. Prepared cells were electroporated at 1800 V, 25 μF and 200 Ω in 1 mm gap size electroporation cuvettes, using the Bio-Rad Gene Pulser Xcell Electroporation System. Subsequently, 975 μL of NEB® 10-beta/Stable Outgrowth Medium was added immediately after the pulse to the transformed cells. Regeneration was done at 30° C. on a horizontal shaker at 250 rpm. Finally, 25-100 μl of the cell suspension was plated onto selective M9-Glucose agar plates supplemented with Kanamycin (25 μg/ml)/Ampicillin (100 μg/ml) (Example 4) or Kanamycin (25 μg/ml)/Ampicillin (100 μg/ml)/Nourseothrin (50 μg/ml) (Example 5). Growth of transformed E. coli cells on selective agar plates was screened for 48 h at 30° C.
As described above, each of the BMC01, BMC02, BMC03, BMC04, BMC05, BMC07, BMC08, BMC09, BMC10, BMC11, BMC12, BMC13, BMC14, or BMC15 nucleases was co-transformed into E. coli with a gRNA targeting the E. coli malQ gene to visualize a) the activity and b) the DNA targeting efficiency of the BMC nucleases.

B1: malQ gRNA (BMC stem-loop + 24 nt spacer) ; malQ protospacer (ssRNA ; dsDNA)
RNA: GAUUUCUACUAUUGUAGAUGUGGCGGUACGUUGAUGCAUCGCG
DNA 1: GTGGCGGTACGTTGATGCATCGCG
DNA 2: CGCGATGCATCAACGTACCGCCAC
B1 was tested, and the activity was > 99.9 % colony reduction.

Source: US20250277199, “NOVEL CRISPR-CAS NUCLEASES FROM METAGENOMES” (Brain Biotech AG, published 2025)
